Results reported in paper PMC2776356 (2009).

B1: wild-type GST-Nkd1 [human] / in vitro translated ^35[S]-labelled Dvl2 [modified: 35S-methionine label; 35S-methionine label] [not stated (human or mouse cDNA cloned)] (parent complex)
chain 1: MGKLHSKPAAVCKRRESPEGDSFAVSAAWARKGIEEWIGRQRCPGGVSGPRQLRLAGTIGRSTRELVGDVLRDTLSEEEEDDFRLEVALPPEKTDGLGSGDEKKMERVSEPCPGSKKQLKFEELQCDVSMEEDSRQEWTFTLYDFDNNGKVTREDITSLLHTIYEVVDSSVNHSPTSSKMLRVKLTVAPDGSQSKRSVLVNQADLQSARPRAETKPTEDLRSWEKKQRAPLRFQGDSRLEQSGCYHHCVDENIERRNHYLDLAGIENYTSQFGPGSPSVAQKSELPPRTSNPTRSRSHEPEAIHIPHRKPQGVDPASFHFLDTPIAKVSELQQRLRGTQDGSKHFVRSPKAQGKSVGVGHVARGARNKPPLGPAIPAVSPSAHLAASPALLPSLAPLGHKKHKHRAKESQQGCRGLQAPLASGGPVLGREHLRELPALVVYESQAGQPVQRHEHHHHHEHHHHYHHFYQT
chain 2: MAGSSTGGGGVGETKVIYHLDEEETPYLVKIPVPAERITLGDFKSVLQRPAGAKYFFKSMDQDFGVVKEEISDDNARLPCFNGRVVSWLVSSDNPQPEMAPPVHEPRAELAPPAPPLPPLPPERTSGIGDSRPPSFHPNVSSSHENLEPETETESVVSLRRERPRRRDSSEHGAGGHRTGGPSRLERHLAGYESSSTLMTSELESTSLGDSDEEDTMSRFSSSTEQSSASRLLKRHRRRRKQRPPRLERTSSFSSVTDSTMSLNIITVTLNMEKYNFLGISIVGQSNERGDGGIYIGSIMKGGAVAADGRIEPGDMLLQVNDMNFENMSNDDAVRVLRDIVHKPGPIVLTVAKCWDPSPQAYFTLPRNEPIQPIDPAAWVSHSAALTGTFPAYPGSSSMSTITSGSSLPDGCEGRGLSVHTDMASVTKAMAAPESGLEVRDRMWLKITIPNAFLGSDVVDWLYHHVEGFPERREARKYASGLLKAGLIRHTVNKITFSEQCYYVFGDLSGGCESYLVNLSLNDNDGSSGASDQDTLAPLPGATPWPLLPTFSYQYPAPHPYSPQPPPYHELSSYTYGGGSASSQHSEGSRSSGSTRSDGGAGRTGRPEERAPESKSGSGSESEPSSRGGSLRRGGEASGTSDGGPPPSRGSTGGAPNLRAHPGLHPYGPPPGMALPYNPMMVVMMPPPPPPVPPAVQPPGAPPVRDLGSVPPELTASRQSFHMAMGNPSEFFVDVM
B2: wild-type GST-Nkd1 [human] / in vitro translated ^35[S]-labelled Dvl1 [modified: 35S-methionine label; 35S-methionine label] [human] (parent complex)
chain 1: B1 chain 1
chain 2: MAETKIIYHMDEEETPYLVKLPVAPERVTLADFKNVLSNRPVHAYKFFFKSMDQDFGVVKEEIFDDNAKLPCFNGRVVSWLVLAEGAHSDAGSQGTDSHTDLPPPLERTGGIGDSRPPSFHPNVASSRDGMDNETGTESMVSHRRERARRRNREEAARTNGHPRGDRRRDVGLPPDSASTALSSELESSSFVDSDEDGSTSRLSSSTEQSTSSRLIRKHKRRRRKQRLRQADRASSFSSITDSTMSLNIVTVTLNMERHHFLGISIVGQSNDRGDGGIYIGSIMKGGAVAADGRIEPGDMLLQVNDVNFENMSNDDAVRVLREIVSQTGPISLTVAKCWDPTPRSYFTVPRADPVRPIDPAAWLSHTAALTGALPRYGTSPCSSAVTRTSSSSLTSSVPGAPQLEEAPLTVKSDMSAVVRVMQLPDSGLEIRDRMWLKITIANAVIGADVVDWLYTHVEGFKERREARKYASSLLKHGFLRHTVNKITFSEQCYYVFGDLCSNLATLNLNSGSSGTSDQDTLAPLPHPAAPWPLGQGYPYQYPGPPPCFPPAYQDPGFSYGSGSTGSQQSEGSKSSGSTRSSRRAPGREKERRAAGAGGSGSESDHTAPSGVGSSWRERPAGQLSRGSSPRSQASATAPGLPPPHPTTKAYTVVGGPPGGPPVRELAAVPPELTGSRQSFQKAMGNPCEFFVDIM
B3: wild-type GST-Nkd1 [human] / in vitro translated ^35[S]-labelled Dvl3 [modified: 35S-methionine label; 35S-methionine label] [human] (parent complex)
chain 1: B1 chain 1
chain 2: MGETKIIYHLDGQETPYLVKLPLPAERVTLADFKGVLQRPSYKFFFKSMDDDFGVVKEEISDDNAKLPCFNGRVVSWLVSAEGSHPDPAPFCADNPSELPPPMERTGGIGDSRPPSFHPHAGGGSQENLDNDTETDSLVSAQRERPRRRDGPEHATRLNGTAKGERRREPGGYDSSSTLMSSELETTSFFDSDEDDSTSRFSSSTEQSSASRLMRRHKRRRRKQKVSRIERSSSFSSITDSTMSLNIITVTLNMEKYNFLGISIVGQSNERGDGGIYIGSIMKGGAVAADGRIEPGDMLLQVNEINFENMSNDDAVRVLREIVHKPGPITLTVAKCWDPSPRGCFTLPRSEPIRPIDPAAWVSHTAAMTGTFPAYGMSPSLSTITSTSSSITSSIPDTERLDDFHLSIHSDMAAIVKAMASPESGLEVRDRMWLKITIPNAFIGSDVVDWLYHNVEGFTDRREARKYASNLLKAGFIRHTVNKITFSEQCYYIFGDLCGNMANLSLHDHDGSSGASDQDTLAPLPHPGAAPWPMAFPYQYPPPPHPYNPHPGFPELGYSYGGGSASSQHSEGSRSSGSNRSGSDRRKEKDPKAGDSKSGGSGSESDHTTRSSLRGPRERAPSERSGPAASEHSHRSHHSLASSLRSHHTHPSYGPPGVPPLYGPPMLMMPPPPAAMGPPGAPPGRDLASVPPELTASRQSFRMAMGNPSEFFVDVM

Variants of: B1
Assay: GST-pulldown; parent: 1; read off a plot

ratio to parent	Variant
~0.14	chain 1 R288H

Variants of: B1
Assay: yeast two-hybrid (quantitative ONPG assay); parent: 4.7; read off a plot

response	Variant
~2.5 ONPG units	chain 1 R288H

Variants of: B2
Assay: GST-pulldown; parent: 1; read off a plot

ratio to parent	Variant
~0.19	chain 1 R288H

Variants of: B2
Assay: yeast two-hybrid (quantitative ONPG assay); parent: 6.2; read off a plot

response	Variant
~2.4 ONPG units	chain 1 R288H

Variants of: B3
Assay: GST-pulldown; parent: 1; read off a plot

ratio to parent	Variant
~0.7	chain 1 R288H

Variants of: B3
Assay: yeast two-hybrid (quantitative ONPG assay); parent: 4; read off a plot

response	Variant
~3 ONPG units	chain 1 R288H
